Measured values from the Human Domainome abundance scans (Beltran et al. 2025).
± gives the uncertainty stated by the source.

B1: Double-stranded RNA-binding protein Staufen homolog 1, residues 183 to 249; numbered along this chain, O95793 (parent)
chain: KSEISQVFEIALKRNLPVNFEVARESGPPHMKNFVTKVSVGEFVGEGEGKSKKISKKNAAIAVLEEL

Variants of: B1
Assay: abundance fitness (aPCA) (normalised: wild type 0, dead -1); higher = more abundant; growth selection in yeast, the domain comes from the species named
Details: Homo sapiens
Work on E9M yielded an abundance fitness of -0.317 ± 0.05.
In the case of E9Y, the abundance fitness is reported as -0.338 ± 0.069.
E9I showed an abundance fitness of -0.552 ± 0.072.
E9D showed an abundance fitness of -0.049 ± 0.047.
For E9Q, the abundance fitness was -0.038 ± 0.051.
Work on E9F yielded an abundance fitness of -0.545 ± 0.066.
Work on E9P yielded an abundance fitness of -0.716 ± 0.071.
With L12A the abundance fitness was 0.111 ± 0.069.
In the case of L12G, the abundance fitness is reported as -0.035 ± 0.067.
In the case of L12Y, the abundance fitness is reported as 0.066 ± 0.14.
With L12S the abundance fitness was 0.028 ± 0.081.
Variant L12T has an abundance fitness of -0.155 ± 0.11.
For V18T, the abundance fitness was -0.784 ± 0.1.
V18R gave an abundance fitness of -0.657 ± 0.058.
Variant V18Q has an abundance fitness of -0.647 ± 0.079.
Variant V18P has an abundance fitness of -0.402 ± 0.084.
In the case of V18E, the abundance fitness is reported as -0.507 ± 0.086.
Work on K37Y yielded an abundance fitness of -0.681 ± 0.27.
With K37L the abundance fitness was -0.311 ± 0.077.
In the case of K37A, the abundance fitness is reported as -0.293 ± 0.1.
P17R gave an abundance fitness of -0.025 ± 0.051.
P17N showed an abundance fitness of -0.112 ± 0.096.
With P17I the abundance fitness was -0.323 ± 0.11.
P17S gave an abundance fitness of -0.008 ± 0.054.
In the case of L64I, the abundance fitness is reported as -0.584 ± 0.12.
L64V gave an abundance fitness of -0.5 ± 0.05.
For L64Y, the abundance fitness was -0.713 ± 0.091.
For L64W, the abundance fitness was -0.67 ± 0.077.
With L64C the abundance fitness was -0.209 ± 0.13.
In the case of L64R, the abundance fitness is reported as -0.517 ± 0.042.
With L64D the abundance fitness was -0.492 ± 0.075.
For S55T, the abundance fitness was -0.815 ± 0.062.
Variant S55L has an abundance fitness of -0.843 ± 0.049.
With S55D the abundance fitness was -0.918 ± 0.096.
Variant S55K has an abundance fitness of -0.889 ± 0.069.
With S55H the abundance fitness was -0.895 ± 0.11.
Variant S55V has an abundance fitness of -0.865 ± 0.053.
In the case of S55W, the abundance fitness is reported as -1 ± 0.079.
In the case of S51E, the abundance fitness is reported as -0.553 ± 0.098.
In the case of S51P, the abundance fitness is reported as -0.449 ± 0.074.
Work on S51K yielded an abundance fitness of -0.344 ± 0.077.
With S51R the abundance fitness was -0.244 ± 0.07.
With S51T the abundance fitness was 0.056 ± 0.067.
Work on I4R yielded an abundance fitness of -0.7 ± 0.042.
Work on I4M yielded an abundance fitness of -0.292 ± 0.054.
Work on I4G yielded an abundance fitness of -0.735 ± 0.056.
For E66P, the abundance fitness was -0.235 ± 0.051.
For E66N, the abundance fitness was -0.012 ± 0.082.
Variant E66V has an abundance fitness of 0.077 ± 0.04.
In the case of E66R, the abundance fitness is reported as 0.123 ± 0.043.
E66K showed an abundance fitness of 0.216 ± 0.056.
E66Q showed an abundance fitness of 0.138 ± 0.06.
With E66W the abundance fitness was -0.079 ± 0.077.
F8N showed an abundance fitness of -0.317 ± 0.063.
Work on E46K yielded an abundance fitness of -0.04 ± 0.084.
Work on E46A yielded an abundance fitness of -0.151 ± 0.055.
E46F showed an abundance fitness of 0.076 ± 0.14.
E46V gave an abundance fitness of 0.036 ± 0.048.
For E46Q, the abundance fitness was 0.051 ± 0.079.
In the case of K57L, the abundance fitness is reported as -0.163 ± 0.19.
In the case of K57F, the abundance fitness is reported as -0.837 ± 0.42.
For K57S, the abundance fitness was -0.43 ± 0.32.
With E3F the abundance fitness was -0.177 ± 0.07.
Work on K52H yielded an abundance fitness of -0.518 ± 0.084.
With K52D the abundance fitness was -0.587 ± 0.067.
K52S showed an abundance fitness of -0.416 ± 0.049.
With K52L the abundance fitness was -0.228 ± 0.039.
For K52R, the abundance fitness was -0.098 ± 0.039.
In the case of F34C, the abundance fitness is reported as -0.547 ± 0.06.
For F34K, the abundance fitness was -0.725 ± 0.071.
In the case of F34V, the abundance fitness is reported as -0.541 ± 0.054.
Work on F34Q yielded an abundance fitness of -0.447 ± 0.049.
Work on F34R yielded an abundance fitness of -0.74 ± 0.042.
With F34Y the abundance fitness was 0.038 ± 0.07.
K50Y showed an abundance fitness of -0.187 ± 0.083.
Work on K50T yielded an abundance fitness of -0.048 ± 0.05.
Work on K50M yielded an abundance fitness of -0.117 ± 0.053.
H30N gave an abundance fitness of 0.078 ± 0.064.
In the case of H30L, the abundance fitness is reported as -0.255 ± 0.037.
Work on H30E yielded an abundance fitness of -0.037 ± 0.058.
Variant H30M has an abundance fitness of -0.115 ± 0.06.
Variant H30C has an abundance fitness of -0.207 ± 0.066.
Variant H30Y has an abundance fitness of -0.208 ± 0.054.
K53E showed an abundance fitness of -0.049 ± 0.058.
In the case of K53V, the abundance fitness is reported as -0.22 ± 0.042.
For K53C, the abundance fitness was -0.284 ± 0.055.
For K53R, the abundance fitness was -0.042 ± 0.04.
For S39H, the abundance fitness was -0.081 ± 0.066.
In the case of S39E, the abundance fitness is reported as -0.146 ± 0.062.
S39Y showed an abundance fitness of -0.051 ± 0.075.
S39P gave an abundance fitness of -0.703 ± 0.08.
K13A showed an abundance fitness of -0.019 ± 0.056.
With K13M the abundance fitness was -0.213 ± 0.09.
In the case of K13R, the abundance fitness is reported as -0.071 ± 0.046.
With K13Q the abundance fitness was -0.079 ± 0.069.
V22W gave an abundance fitness of -0.36 ± 0.061.
V22S showed an abundance fitness of -0.059 ± 0.048.
V22P gave an abundance fitness of 0.056 ± 0.057.
Variant A23W has an abundance fitness of -0.141 ± 0.042.
In the case of A23Q, the abundance fitness is reported as -0.005 ± 0.053.
With A23D the abundance fitness was -0.108 ± 0.058.
Variant A23P has an abundance fitness of 0.021 ± 0.052.
A23T showed an abundance fitness of 0.033 ± 0.04.
Variant A23Y has an abundance fitness of -0.086 ± 0.059.
In the case of G47H, the abundance fitness is reported as -0.555 ± 0.11.
G47R gave an abundance fitness of -0.627 ± 0.041.
In the case of G47C, the abundance fitness is reported as -0.976 ± 0.11.
With G27T the abundance fitness was -0.309 ± 0.047.
In the case of G27K, the abundance fitness is reported as -0.207 ± 0.052.
For G27F, the abundance fitness was -0.436 ± 0.071.
Work on G27W yielded an abundance fitness of -0.48 ± 0.046.
Work on F20I yielded an abundance fitness of -0.114 ± 0.12.
F20M showed an abundance fitness of -0.305 ± 0.058.
With F20K the abundance fitness was -0.45 ± 0.061.
Variant F20H has an abundance fitness of -0.699 ± 0.096.
In the case of V63M, the abundance fitness is reported as -0.239 ± 0.073.
In the case of V63W, the abundance fitness is reported as -0.818 ± 0.07.
V63H showed an abundance fitness of -0.858 ± 0.11.
V63R gave an abundance fitness of -0.73 ± 0.042.
With V63A the abundance fitness was -0.246 ± 0.055.
V63F showed an abundance fitness of -0.829 ± 0.17.
G41Q showed an abundance fitness of -0.979 ± 0.13.
Work on G41S yielded an abundance fitness of -0.945 ± 0.062.
Work on G41W yielded an abundance fitness of -0.825 ± 0.12.
Variant G41T has an abundance fitness of -1.17 ± 0.11.
For V35Q, the abundance fitness was -0.093 ± 0.059.
Work on V35M yielded an abundance fitness of -0.083 ± 0.058.
V35I gave an abundance fitness of 0.046 ± 0.051.
Variant V35D has an abundance fitness of -0.511 ± 0.08.
E21C gave an abundance fitness of -0.114 ± 0.051.
For E21P, the abundance fitness was -1.05 ± 0.12.
E21L showed an abundance fitness of -0.133 ± 0.041.
Work on E21R yielded an abundance fitness of -0.084 ± 0.034.
With E21G the abundance fitness was -0.165 ± 0.037.
With E21I the abundance fitness was -0.204 ± 0.066.
Work on E21F yielded an abundance fitness of -0.055 ± 0.084.
In the case of N19P, the abundance fitness is reported as -0.698 ± 0.07.
Variant N19W has an abundance fitness of -0.246 ± 0.062.
N19L gave an abundance fitness of -0.069 ± 0.041.
Work on N19F yielded an abundance fitness of -0.062 ± 0.089.
In the case of N19H, the abundance fitness is reported as 0.011 ± 0.078.
Variant N19I has an abundance fitness of -0.15 ± 0.075.
N19S showed an abundance fitness of 0.006 ± 0.051.
In the case of G45E, the abundance fitness is reported as -0.484 ± 0.053.
G45F gave an abundance fitness of -0.373 ± 0.075.
G45S showed an abundance fitness of -0.146 ± 0.04.
Work on G45Y yielded an abundance fitness of -0.422 ± 0.096.
Work on G45D yielded an abundance fitness of -0.645 ± 0.076.
Variant G45Q has an abundance fitness of -0.395 ± 0.066.
For G45V, the abundance fitness was -0.345 ± 0.044.
For G45C, the abundance fitness was -0.038 ± 0.082.
Work on K56M yielded an abundance fitness of -0.35 ± 0.1.
Work on K56C yielded an abundance fitness of -0.524 ± 0.11.
Work on K56F yielded an abundance fitness of -0.476 ± 0.11.
With K56D the abundance fitness was -0.661 ± 0.18.
Variant E65K has an abundance fitness of 0.118 ± 0.055.
Work on E65P yielded an abundance fitness of -0.386 ± 0.054.
E65F gave an abundance fitness of -0.737 ± 0.17.
For E65Q, the abundance fitness was -0.016 ± 0.059.
For E65W, the abundance fitness was -0.388 ± 0.065.
Variant E65H has an abundance fitness of -0.051 ± 0.1.
For T36I, the abundance fitness was -1.1 ± 0.095.
In the case of T36G, the abundance fitness is reported as -0.664 ± 0.047.
In the case of T36P, the abundance fitness is reported as -0.671 ± 0.071.
In the case of T36K, the abundance fitness is reported as -0.689 ± 0.075.
With T36A the abundance fitness was -0.251 ± 0.047.
T36R gave an abundance fitness of -0.768 ± 0.042.
